The values that follow come from paper PMC9164050, “N-Terminus-Mediated Solution Structure of Dimerization Domain of PRC1” (Current Issues in Molecular Biology, 2022).

This data set concerns the molecule itself. The data set can be described thus: cross-linking; PEG5 cross-linker (0.1 M-1 M), protein at 20 nM and 50 nM, 50 mM sodium phosphate, 150 mM NaCl, pH 7.4, 25 °C, 30 min, read by SDS-PAGE.

What is called stoichiometry N is a count of units in the complex or per binding partner.

B1: PRC1 dimerization domain (PRC1-DD; aa 1-65 of Protein Regulator of Cytokinesis 1) (domain or fragment, human, UniProt O43663-1 1-65, looked up)
chain: MRRSEVLAEESIVCLQKALNHLREIWELIGIPEDQRLQRTEVVKKHIKELLDMMIAEEESLKERL
notes: Protein Regulator of Cytokinesis 1 (PRC1), human, isoform 1 (NP_003972; full length 620 residues), residues 1-65 (dimerization domain); Cloned between Nde I and Xho I of pET-21a with a C-terminal His-tag; no removal of the tag is described; For NMR the protein was 15N- or 15N/13C-labelled; isotopic heterodimers were made by mixing unlabelled and labelled protein in 8 M urea; also called …
Consider B1, for which the “stoichiometry N” value came to 2.
